From article PMC4379586 come the findings set out here.

For orientation: Kd means the equilibrium constant for the complex coming apart. Higher therefore signals weaker binding.

Series [1] concerns MDM2 C-terminal RING domain (GST fusion) (human). Kind of series: ITC. The settings on record: ITC: 10 mM Hepes pH 7.2, 150 mM NaCl, temperature not stated; fluorescence titration (ex 280 nm, em 335 nm): buffer and temperature not stated.
Series [2] has the same test system. The series can be described thus: intrinsic protein fluorescence titration. The following applies: ITC: 10 mM Hepes pH 7.2, 150 mM NaCl, temperature not stated; fluorescence titration (ex 280 nm, em 335 nm): buffer and temperature not stated.

On to “XIAP IRES RNA (small, RNP core binding site)”, for which the Kd in series [1] came to 700 nM; in series [2], 680 nM.
